Results from publication PMC10267138, “A polyamine acetyltransferase regulates the motility and biofilm formation of Acinetobacter baumannii” (Nature Communications, 2023).
Blank lines part the entries; values can stand above or below the compound they belong to.

Legend:
[1] = target: his-Dpa (A. baumannii diaminopropane acetyltransferase Dpa, wild type) (Acinetobacter baumannii); assay: crystal structure; his-Dpa at 10 mg/ml crystallised with 0.1 mM acetyl-CoA; 0.2 M sodium acetate, 0.1 M Tris-HCl pH 8.5, 30% PEG 4000, 20 °C
[2] = target: his-Dpa (A. baumannii diaminopropane acetyltransferase Dpa, wild type) (Acinetobacter baumannii); assay: SEC; analytic SEC on Superdex75 increase, 50 mM Tris-HCl pH 8, 250 mM NaCl; 500 μL of 20 μM protein injected; where indicated pre-incubated with 5-fold molar excess of acCoA and/or 1,3-DAP
Dpa = target: T1, Dpa (Acinetobacter baumannii, UniProt V5VBK4); assay: X-ray crystal structure; type: binding; conditions: crystallised with 0.1 mM acetyl-CoA, pH 8.5
T1 construct: gene ABR2091_2278; his-tagged Dpa from pKK223.3, expressed in E. coli DJ624 delta-ara; C-terminal beta-strand swapped dimer

SpeG = target: T2, SpeG (Escherichia coli, UniProt P0A951); assay: DTNB acetylation assay; type: biochemical; conditions: acetyl-CoA co-substrate 0.5 mM; substrate 5 mM; pH 8.0; 30 °C
T2 construct: his-tagged SpeG from pKK223.3, expressed in E. coli DJ624 delta-ara
T2 sequence (P0A951 2-186): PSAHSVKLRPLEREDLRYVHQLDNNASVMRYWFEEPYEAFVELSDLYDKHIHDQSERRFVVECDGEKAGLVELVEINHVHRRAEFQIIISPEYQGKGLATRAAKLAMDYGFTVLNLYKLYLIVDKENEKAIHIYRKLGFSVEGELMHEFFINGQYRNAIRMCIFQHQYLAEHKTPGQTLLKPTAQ

[3] = target: his-Dpa_(Y128F) (catalytically impaired Dpa) (Acinetobacter baumannii); assay: crystal structure

stoichiometry N [1]: 2
stoichiometry N [2]: 2
Compound: his-Dpa (A. baumannii diaminopropane acetyltransferase Dpa, wild type) (enzyme)

Compound: CC(=O)SCCNC(=O)CCNC(=O)[C@H](O)C(C)(C)COP(=O)(O)OP(=O)(O)OC[C@H]1O[C@@H](n2cnc3c(N)ncnc32)[C@H](O)[C@@H]1OP(=O)(O)O [acetyl-CoA]
X-ray crystal structure (Dpa): we determined the structure of Dpa bound to acCoA

Compound: NCCCCNCCCN [spermidine]
DTNB acetylation assay (SpeG): SpeG acetylated the long polyamines Spermine and Spermidine

Compound: his-Dpa_(Y128F) (catalytically impaired Dpa) (enzyme)
stoichiometry N [3]: 2

Compound: NCCCNCCCCNCCCN [spermine]
DTNB acetylation assay (SpeG): SpeG acetylated the long polyamines Spermine and Spermidine
